# Read-outs that look alike come from different tables or passages of the source.
# B1: PSL: Pisum sativum lectin, α-D-mannose-specific (protein, UniProt P02867 31-217; P02867 218-275, looked up)
# Lectin beta chain: TETTSFLITKFSPDQQNLIFQGDGYTTKEKLTLTKAVKNTVGRALYSSPIHIWDRETGNVANFVTSFTFVINAPNSYNVADGFTFFIAPVDTKPQTGGGYLGVFNSAEYDKTTQTVAVEFDTFYNAAWDPSNRDRHIGIDVNSIKSVNTKSWKLQNGEEANVVIAFNAATNVLTVSLTYPNSLEEEN
# Lectin alpha chain: VTSYTLSDVVSLKDVVPEWVRIGFSATTGAEYAAHEVLSWSFHSELSGTSSSKQAADA
# B2: FITC-PSL: FITC-labeled PSL lectin conjugate (conjugate, UniProt P02867 31-217; P02867 218-275, looked up)
# Lectin beta chain: TETTSFLITKFSPDQQNLIFQGDGYTTKEKLTLTKAVKNTVGRALYSSPIHIWDRETGNVANFVTSFTFVINAPNSYNVADGFTFFIAPVDTKPQTGGGYLGVFNSAEYDKTTQTVAVEFDTFYNAAWDPSNRDRHIGIDVNSIKSVNTKSWKLQNGEEANVVIAFNAATNVLTVSLTYPNSLEEEN
# Lectin alpha chain: VTSYTLSDVVSLKDVVPEWVRIGFSATTGAEYAAHEVLSWSFHSELSGTSSSKQAADA
# modifications: FITC label
# notes: FITC-labeled PSL lectin conjugate
# Columns and labels:
# apoptotic cells = assay: Effect of glycoprotein synthesis/traffic inhibitors on glycoprotein expression in apoptotic cells; format: cell-based
# L1210 cells = format: binding, murine
# [1] = tested on: murine leukemia L1210 cells; assay: Effect of cisplatin concentration on quantity of live cells
# Experimental: Apoptosis of L1210 cells was induced by cisplatin (0.5 and 0.1 μg/ml, or 5.0 μg/ml, Ebewe, Austria) (56,57); apoptosis of L929 cells was induced by hyperthermia 43° C. […] Cell viability was controlled by trypan-blue (0.1% w/v solution) exclusion test, and cells were counted in hemocytometric chamber under light microscope.
# [2] = tested on: murine leukemia L1210 cells; format: cell-based
# Experimental: Mixtures were resuspended once and 10 μl were transferred on slide glass, and examined under microscope.
# Mannose-specific PMRL and PSL lectins caused agglutination of normal cells in concentrations of 625 and 1000 μg/ml, respectively and agglutination of apoptotic cells in concentrations of 78 and 125 μg/ml, respectively (FIG. 11). Thus, lectin concentration needed for agglutination of apoptotic cells was approximately equal to and/or equal to ⅛ (625 against 78 and 1000 against 125) of that needed to agglutinate the non-apoptotic cells. It is believed that there is an 8-fold increase in mannose-containing glycoconjugate expression in the apoptotic cells comparing to intact cells. Similar results were obtained for galactose-specific lectins.
# [3] = tested on: human adenocarcinoma cells of MCF-7 line; assay: Lectinocytochemical analysis with HRP-labeled lectins; format: binding
# Experimental: (§1) Lectin cytochemical analysis was conducted as described previously by Herrington & Mc Gee (Herrington C S, McGee JO'D. Diagnostic molecular pathology. Oxford: IRL Press; 1992), with some modifications. Cell smears were fixed in a mixture of acetone, methanol, and formalin (19:19:2) for 90 s at room temperature and then air dried. Smears were washed twice with Tris saline buffer (TSB) for 2 min and incubated with HRP-labeled lectins (50 μg/ml) for 1 h at room temperature or overnight at 4° C. If necessary, the appropriate sugar inhibitor (0.1 M solution) was added to the incubation mixture. Smears were washed twice with TSB for 10 min and incubated with 0.5 mg/ml of 3,3′-diaminobenzidin (Sigma Chemical Co.) and 4 μl/ml of H2O2 in TSB for 5 min. In some experiments a NiCl2 solution was added to the incubation mixture (final concentration, 1 mg/ml) to improve cell contrast.
# (§2) Alternatively, smears were washed in distilled water, air dried and photographed. Densitometric analysis was performed on an AMD-based IBM PC computer using ImageJ (Wayne Rasband, National Institutes of Health, USA) program support and the UTHSCSA ImageTool program (University of Texas Health Science Center in San Antonio, Tex.).
# [4] = tested on: human leukemia Jurkat cells; assay: as above; format: binding
# Experimental: as §1, §2
# [5] = tested on: murine fibroblasts of L929 line; assay: as above; format: binding
# [6] = tested on: L929, L1210, MCF-7 (wt), MCF-7 (DOX/R), and Jurkat cell lines; assay: Lectinocytochemical analysis, summary over the studied cell lines; format: binding
# [7] = tested on: human lung carcinoma A549 cells; assay: Fluorescent microscopy with fluorescent lectin conjugate; format: binding
molecule,measurement,setting,value
CC[C@@]1([C@@H]2O[C@@H]([C@H]3O[C@@](O)(CO)[C@H](C)C[C@@H]3C)C[C@@H]2C)CC[C@H]([C@]2(C)CC[C@]3(C[C@H](O)[C@@H](C)[C@@H]([C@@H](C)[C@@H](OC)[C@H](C)C(=O)O)O3)O2)O1 [monensine],effect on the increase in expression of α-D-mannose- and β-D-galactose-containing glycoprotein(s) in apoptotic cells,apoptotic cells,did not diminish
O=CC[C@@H](O)[C@H](O)[C@H](O)CO [2-deoxy-D-glucose],effect on the increase in expression of α-D-mannose- and β-D-galactose-containing glycoprotein(s) in apoptotic cells,apoptotic cells,did not diminish
"CO[C@H]1O[C@H](CO)[C@@H](O)[C@H](O)[C@@H]1O [α-MMan, α-Methyl-D-mannopyranoside, reference compound]",inhibition of lectin binding by specific sugar inhibitor,L1210 cells,almost absolute abolishment
"OC[C@H]1O[C@H](O[C@H]2[C@H](O)[C@@H](O)C(O)O[C@@H]2CO)[C@H](O)[C@@H](O)[C@H]1O (stereo partly drawn) [lactose, 4-O-(α-D-galactopyranosyl)-D-glucopyranose, reference compound]",inhibition of lectin binding by specific sugar inhibitor,"L1210 cells; α-MMan for PSL, lactose for RCA-120",substantial
"N.N.[Cl][Pt][Cl] [cisplatin, cis-diamminodichloroplatinum]",effect of increasing concentration on live cell number,[1],decrease in live cell number
tunicamycin,effect on the increase in expression of α-D-mannose- and β-D-galactose-containing glycoprotein(s) in apoptotic cells,apoptotic cells,did not diminish
B1,lectin concentration needed for agglutination of apoptotic cells as fraction of that needed for non-apoptotic cells,[2]; L1210 cells,⅛
same,minimal lectin concentration needed to induce noticeable agglutination,[2]; apoptotic L1210 cells,125 µg/mL
same,minimal lectin concentration needed to induce noticeable agglutination,[2]; normal L1210 cells,1000 µg/mL
same,"lectin binding, apoptotic vs non-apoptotic cells",[3],increase in binding
same,"lectin binding, apoptotic vs normal cells",[3],statistically insignificant
same,"lectin binding, apoptotic vs non-apoptotic cells",[4],stronger
same,"lectin binding, apoptotic vs normal cells",[5]; L929,significantly stronger binding
same,"staining, apoptotic vs non-apoptotic cells","[5]; L929, etoposide 10 μM, 72 h",more intensive staining
same,"lectin binding, apoptotic vs non-apoptotic cells","[5]; L929, hyperthermia 43° C., 3h, detached by rubbing",increased binding
same,"lectin binding, apoptotic vs intact cells","[5]; L929, hyperthermia, trypsinization",significantly stronger
same,lectin binding with apoptotic cells compared to non-apoptotic cells,[6],increased bidding
same,binding by apoptotic cells compared with normal cells,L1210 cells,much better bound
same,"lectin binding of cells pretreated 2 h with non-labeled lectin vs untreated, stained with corresponding HRP-labeled lectin",L1210 cells,decrease
B2,binding of labeled lectin compared to untreated cells or cells with onset of apoptosis,"[7]; A549, 5 μg/ml cisplatin 24 hours, apoptosis in almost all cells (FIG. 18 lower row)",significantly higher
same,binding of labeled lectin compared to untreated cells,"[7]; A549, 5 μg/ml cisplatin 24 hours, beginning of apoptotic cell death (FIG. 18 middle row)",significantly stronger
same,binding of labeled lectin,[7]; untreated A549 cells,did not bind
